Assay results taken from patent US10538556.

Legend:
[1] = system: TBP6.7 deltaC truncated after residue 90 (in TBP6.7 Y31H/Q36R) (Homo sapiens); test: ITC; details: 20 C
[2] = system: TBP6.7 (U1A-derived TAR binding protein, crystallization variant) (Homo sapiens); test: ITC
[3] = biological target: TBP6.7 Q48A Q48A (in TBP6.7 Y31H/Q36R) (Homo sapiens) (UniProt P09012); test: ITC; details: 20 C
[4] = biological target: TBP6.7 Q54A Q54A (in TBP6.7 Y31H/Q36R) (Homo sapiens) (UniProt P09012); test: ITC; details: 20 C
Chain of TBP6.7 Q54A Q54A (in TBP6.7 Y31H/Q36R) (Homo sapiens) (P09012 1-98 Y31H/Q36R/Q54A): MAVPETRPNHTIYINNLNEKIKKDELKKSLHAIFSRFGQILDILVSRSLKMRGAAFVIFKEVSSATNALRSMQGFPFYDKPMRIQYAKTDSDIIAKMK

[5] = biological target: TBP6.7 R47K R47K (in TBP6.7 Y31H/Q36R) (Homo sapiens) (UniProt P09012); test: ITC; details: 20 C
Chain of TBP6.7 R47K R47K (in TBP6.7 Y31H/Q36R) (Homo sapiens) (P09012 1-98 Y31H/Q36R/R47K): as the sequence (P09012 1-98 Y31H/Q36R/Q54A) above, with R47K, A54Q counted along it

[6] = biological target: TBP6.7 R49A R49A (in TBP6.7 Y31H/Q36R) (Homo sapiens) (UniProt P09012); test: ITC; details: 20 C
Chain of TBP6.7 R49A R49A (in TBP6.7 Y31H/Q36R) (Homo sapiens) (P09012 whole entry, stated change not applied): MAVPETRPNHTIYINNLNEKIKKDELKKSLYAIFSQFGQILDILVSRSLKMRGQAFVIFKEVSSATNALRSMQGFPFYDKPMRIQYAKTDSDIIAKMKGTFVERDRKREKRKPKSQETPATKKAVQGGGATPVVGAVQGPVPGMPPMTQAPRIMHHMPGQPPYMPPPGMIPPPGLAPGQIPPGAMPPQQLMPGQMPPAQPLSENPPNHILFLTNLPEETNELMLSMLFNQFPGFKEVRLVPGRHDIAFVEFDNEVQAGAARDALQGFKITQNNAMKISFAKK

[7] = biological target: TBP6.7 T50A T50A (in TBP6.7 Y31H/Q36R) (Homo sapiens) (UniProt P09012); test: ITC; details: 20 C; error printed as XX
Chain of TBP6.7 T50A T50A (in TBP6.7 Y31H/Q36R) (Homo sapiens) (P09012 whole entry, stated change not applied): as above

[8] = biological target: TBP6.7 P46A P46A (in TBP6.7 Y31H/Q36R) (Homo sapiens) (UniProt P09012); test: ITC; details: 20 C
Chain of TBP6.7 P46A P46A (in TBP6.7 Y31H/Q36R) (Homo sapiens) (P09012 whole entry, stated change not applied): as above

[9] = biological target: TBP6.7 R52A R52A (in TBP6.7 Y31H/Q36R) (Homo sapiens) (UniProt P09012); test: ITC; details: 20 C
Chain of TBP6.7 R52A R52A (in TBP6.7 Y31H/Q36R) (Homo sapiens) (P09012 1-98 Y31H/Q36R/R52A): as the sequence (P09012 1-98 Y31H/Q36R/Q54A) above, with R52A, A54Q counted along it

[10] = biological target: TBP6.7 Q48T Q48T (in TBP6.7 Y31H/Q36R) (Homo sapiens) (UniProt P09012); test: ITC; details: 20 C
Chain of TBP6.7 Q48T Q48T (in TBP6.7 Y31H/Q36R) (Homo sapiens) (P09012 whole entry, stated change not applied): as the sequence (P09012 whole entry, stated change not applied) above

[11] = biological target: TBP6.7 R47A R47A (in TBP6.7 Y31H/Q36R) (Homo sapiens) (UniProt P09012); test: ITC; details: 20 C; estimate, low c-value
Chain of TBP6.7 R47A R47A (in TBP6.7 Y31H/Q36R) (Homo sapiens) (P09012 1-98 Y31H/Q36R/R47A): as the sequence (P09012 1-98 Y31H/Q36R/Q54A) above, with R47A, A54Q counted along it

[12] = biological target: TBP6.7 P51A P51A (in TBP6.7 Y31H/Q36R) (Homo sapiens) (UniProt P09012); test: ITC; details: 20 C
Chain of TBP6.7 P51A P51A (in TBP6.7 Y31H/Q36R) (Homo sapiens) (P09012 whole entry, stated change not applied, the tested form may be a part): as the sequence (P09012 whole entry, stated change not applied) above

[13] = system: Tat peptide (basic domain) (Human immunodeficiency virus 1); details: method of this Kd not stated
[14] = system: stapled (cyclic) beta2-beta3 loop peptide L44C, F56C (synthetic); test: flow; details: 25 C, E. coli surface display, apparent Kd

Chain of TBP6.7 Q48A Q48A (in TBP6.7 Y31H/Q36R) (Homo sapiens) (P09012 other isoform, or with tags, fused parts or gaps Q48A Q48A Y31H Q36R): as the sequence (P09012 1-98 Y31H/Q36R/Q54A) above, with H31Y, R36Q, A54Q, Y78H counted along it

For HIV-1 TAR RNA, the Kd [1] was 12 nM, the Kd ([2]; 20 C, n=0.99) was 2.5 nM and the Kd ([2]; 37 C, 0.05 M NaCl, 0.05 M KCl, 2 mM MgCl2, 2 mM beta-mercaptoethanol, pH 7.5, estimate of about 0.7 nM at 20 C in same example) was 18.5 nM. The Kd [3] was 5.5 nM, the Kd [4] was 7.2 nM and the Kd [5] was 156 nM. It also gave a Kd [6] of 710 nM, a Kd [7] of 11.4 nM and a Kd [8] of 11.7 nM. It also gave a Kd [9] of 290 nM, a Kd [10] of 3.6 nM and a Kd [11] of 1520 nM. The Kd [12] was 10.8 nM, the Kd [13] was 260 nM and the Kd [14] was 80 nM.
